Data reported in patent US11110115B2, “Nucleic acid molecule with anti-inflammatory and anti-coagulant and organ-protective properties” (APTAHEM AB, priority 2017, dated 2021).

How the values were obtained:
[1] = Tail bleeding model (bleeding time); assay type: in vivo, Sprague-Dawley rats; conditions: for group average bleeding time compared to matched vehicle group: SEQ ID NO:2 5, 20, 40 mg/kg i.v. 5 min before, Rivaroxaban 10 mg/kg PO 1 hour before, Warfarin 0.5 mg/kg IV
Procedure: A total of 36 Sprague-Dawley male and female rats were utilized and divided into six groups comprising of 6 animals per group. Animal handling was performed according to guidelines of the National Institute of Health and the Association for Assessment and Accreditation of Laboratory Animal Care. Animals were fed ad libitum a commercial rodent diet (Teklad Certified Global 18% Protein Diet cat #: 2018SC). Animals had free access to autoclaved and acidified drinking water (pH between 2.5 and 3.5) obtained from the municipality supply. Animals were housed under standard laboratory conditions, air conditioned and filtered with adequate fresh air supply. Animals were kept in a climate controlled environment.
SEQ ID NO:2 (Biospring) (100 mg) was dissolved in 5 ml saline to form a stock solution of 20 mg/ml. Vehicle (saline) was provided by Pharmaseed as ready to use for i.v. administration. Rivaroxaban (Bayer, Pharmaseed Ltd) dosing solution was diluted at 10 mg/kg (Group 2M). Warfarin (Ceriliant, Pharmaseed Ltd) was diluted at 0.5 mg/kg (Group 3M). Both Rivaroxaban and Warfarin are clinical standards with anticoagulation activity. To obtain SEQ ID NO:2 dosing solution (2.5 mg/ml) for dose level of 5 mg/kg and dose volume of 2 ml/kg for i.v. injection, 0.375 ml of the above 20 mg/ml stock solution was diluted with 2.625 ml of saline (Group 4M). To obtain SEQ ID NO:2 dosing solution (10 mg/ml) for dose level of 20 mg/kg and dose volume of 2 ml/kg for i.v. injection, 1.5 ml of the above 20 mg/ml stock solution was diluted with 1.5 ml saline (Group 5M). To obtain SEQ ID NO:2 dosing solution (20 mg/ml) for dose level of 40 mg/kg and dose volume of 2 ml/kg for i.v. injection, the above 20 mg/ml stock used (Group 6).
Rats were intravenously injected five minutes before bleeding time assay. […] Three treated groups received SEQ ID NO:2 at dose levels of 5, 20 and 40 mg/kg saline solution. In each gender, control groups received saline Vehicle. A positive control group received Rivaroxaban (10 mg/kg). Rivaroxaban was administered by oral gavage 1 hour before bleeding time assay. A second positive control groups received Warfarin (0.5 mg/kg).
Male and female rats were anaesthetized by intraperitoneal injection of ketamine/xylazine. Bleeding time was monitored as described in Stupnisek et al. (2012), until blood flow stopped for a complete 30-sec interval or till the end of 30 min period. In deeply anaesthetized rats (placed in ventral position) the tail was transected with a surgical scalpel 2 mm from the tip (and submerged into a tube with 40 ml of saline at room temperature in vertical position) and the duration and amount of bleeding was measured to evaluate the hemostatic effect of the agents or saline administration. Following the completion of bleeding time evaluation, all rats were immediately sacrificed by CO2 asphyxiation.
Numerical results were given as means±standard errors. If applicable, statistical analysis was carried out using one-way ANOVA followed by Dunnett's Multiple Comparison post Test. A probability of 5% (p≤0.05) was regarded as significant.

[2] = Comparable ex vivo APTT study, mouse
[3] = Comparable ex vivo APTT study, canine
[4] = Ferric chloride induced arterial thrombosis model (clot weight and size); assay type: in vivo, Sprague-Dawley rats; conditions: 60 min after FeCl3; SEQ ID NO:2 5, 20, 40 mg/kg i.v.; Rivaroxaban 10 mg/kg oral; Warfarin 0.5 mg/kg i.v.
Procedure: Animal handling was performed according to guidelines of the National Institute of Health (NIH) and the Association for Assessment and Accreditation of Laboratory Animal Care (AAALAC). A total of 36 Sprague-Dawley rats (Envigo RMS) were divided into six groups comprising of 6 animals per group (3 males and 3 females). […] Both were fed ad libitum a rodent diet. Animals had free access to autoclaved and acidified drinking water. Animals were housed under standard laboratory conditions, air conditioned and filtered with adequate fresh air supply. Animals were kept in a climate controlled environment.
SEQ ID NO:2 (Biospring) (100 mg) was dissolved in 5 ml saline to form a stock solution of 20 mg/ml. Vehicle (saline, Teva) as ready to use for i.v. administration. Rivaroxaban (Bayer, Pharamseed Ltd) dosing solution was diluted at 10 mg/kg (Group 2M). Warfarin (Ceriliant, Pharmaseed Ltd) was diluted at 0.5 mg/kg (Group 3M). […]
Male and Female rats were anaesthetized by intraperitoneal injection of ketamine/xylazine. […] The time needed for occlusion to occur was measured for up to 60 min, and occlusion time was assigned a value of 60 min for vessels that […].
Clot formation was followed for 60 minutes following application of FeCl3. […] The artery wall was cut longitudinally; clot was taken out, weighed and measured by caliper. […]

B1: SEQ ID NO:2: nucleic acid sequence of SEQ ID NO:1 in which each C and U is fluorinated to increase stability in plasma (nucleic acid)
chain: GGGAAUUCGAGCUCGGUACCAACAAUACGACUACACCAUCAAAAGUAUUAUCUUGCAUCGAAGGUUGGCACGUAGCAAGCUCUGCAGUCG
modifications: fluorinated C and U; (6)..(7) uracil is fluorinated; (8)..(8) cytosine is fluorinated; (12)..(12) cytosine is fluorinated; (13)..(13) uracil is fluorinated; (14)..(14) cytosine is fluorinated; (17)..(17) uracil is fluorinated; (19)..(20) cytosine is fluorinated; (23)..(23) cytosine is fluorinated; (26)..(26) uracil is fluorinated; (28)..(28) cytosine is fluorinated; (31)..(31) cytosine is fluorinated; (32)
With B1 the “anti-coagulation activity relative to clinical care standards (Rivaroxaban and Warfarin)” value ([1]; all doses (5, 20, 40 mg/kg i.v.), bleeding time) was “equivalent”, the “group average bleeding time compared to matched vehicle group” value ([1]; female rats) was “increased significantly” and the “dose response effect on bleeding time” value ([1]; male rats, 5, 20, 40 mg/kg i.v.) was “can be observed”. The “group average bleeding time compared to matched vehicle group” value ([1]; male rats) was “increased significantly”, the “positive effect on APTT” value [2] was “confirmed” and the “positive effect on APTT” value [3] was “confirmed”. The “clot size compared to control group (Vehicle)” value [4] was “reduction” and the “clot weight compared to control group (Vehicle)” value [4] was “reduction”.
